From patent US20220387586A1 (Hoffmann-La Roche, published 2022)

T1: human Fc tagged human Lag3 extra cellular domain (human, UniProt P18627 29-450, biotinylated in the epitope binning, the SA CAP SPR and the FACS competition assay)
T1 construct: In-house fusion; also called huLag3-Fc; biotinylated, huFc-tagged huLag3; not shown: human Fc tag
T1 sequence: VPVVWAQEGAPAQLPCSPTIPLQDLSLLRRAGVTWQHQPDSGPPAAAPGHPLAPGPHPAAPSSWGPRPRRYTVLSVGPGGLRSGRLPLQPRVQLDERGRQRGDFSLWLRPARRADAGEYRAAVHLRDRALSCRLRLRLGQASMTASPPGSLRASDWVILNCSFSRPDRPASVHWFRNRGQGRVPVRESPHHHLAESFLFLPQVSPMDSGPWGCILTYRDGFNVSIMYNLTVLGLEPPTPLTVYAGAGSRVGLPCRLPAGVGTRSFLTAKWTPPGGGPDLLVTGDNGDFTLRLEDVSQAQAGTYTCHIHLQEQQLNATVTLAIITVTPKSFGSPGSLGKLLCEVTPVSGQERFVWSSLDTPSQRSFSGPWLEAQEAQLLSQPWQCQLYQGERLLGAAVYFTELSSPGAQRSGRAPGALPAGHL

T2: biotinylated-Lag3 (UniProt P18627 23-450, limits assumed, biotinylated)
T2 construct: Probably a human LAG3 ECD construct; also called Lag3 (MHCII/ELISA)
T2 sequence (looked up): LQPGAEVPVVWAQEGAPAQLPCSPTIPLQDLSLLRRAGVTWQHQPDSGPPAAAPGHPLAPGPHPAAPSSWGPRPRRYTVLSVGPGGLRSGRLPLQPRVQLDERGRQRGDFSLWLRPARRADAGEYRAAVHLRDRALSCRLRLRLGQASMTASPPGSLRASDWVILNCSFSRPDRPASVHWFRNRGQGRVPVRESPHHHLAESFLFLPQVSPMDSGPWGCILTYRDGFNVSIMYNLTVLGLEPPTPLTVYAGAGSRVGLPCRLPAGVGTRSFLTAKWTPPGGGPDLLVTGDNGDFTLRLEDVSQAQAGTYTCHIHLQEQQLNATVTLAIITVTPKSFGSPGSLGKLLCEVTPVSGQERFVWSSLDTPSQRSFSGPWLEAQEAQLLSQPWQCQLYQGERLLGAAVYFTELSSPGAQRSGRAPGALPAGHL

T3: LAG3 on cells (recombinant CHO cells expressing Lag3) (human, UniProt P18627 29-525)
T3 sequence: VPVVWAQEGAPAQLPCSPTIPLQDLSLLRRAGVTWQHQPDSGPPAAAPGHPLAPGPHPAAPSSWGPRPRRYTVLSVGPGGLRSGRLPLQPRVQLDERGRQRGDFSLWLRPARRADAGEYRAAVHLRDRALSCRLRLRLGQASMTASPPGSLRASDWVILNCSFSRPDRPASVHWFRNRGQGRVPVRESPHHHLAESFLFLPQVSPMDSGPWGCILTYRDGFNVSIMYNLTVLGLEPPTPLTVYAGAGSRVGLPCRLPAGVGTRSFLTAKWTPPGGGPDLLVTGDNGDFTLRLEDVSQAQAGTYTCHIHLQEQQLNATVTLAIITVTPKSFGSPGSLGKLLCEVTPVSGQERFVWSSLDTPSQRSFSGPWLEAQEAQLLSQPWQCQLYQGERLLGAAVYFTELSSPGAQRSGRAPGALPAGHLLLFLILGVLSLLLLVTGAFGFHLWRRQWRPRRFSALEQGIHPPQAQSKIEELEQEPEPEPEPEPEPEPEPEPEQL


Columns and labels:
cynomolgus LAG3 on cells [1] = target: T4, cynomolgus LAG3 on cells (cynomolgus); assay: flow cytometry on activated cynomolgus PBMC, 10 µg/ml (only 2nd Ab (rb): 5.26)
T4 construct: whole, on cells; also called cyno-LAG-3; cynoLAG3
Method: Thus, cynomolgus peripheral blood mononuclear cells (PBMC) were prepared from fresh cynomolgus blood and were then activated by CD3/CD28 pre-treatment (1 μg/ml) for 2-3 days. […] After staining, cells were washed two times with PBS/2% FCS and analyzed on a FACS Fortessa (BD).

[2] = target: T1, human Fc tagged human Lag3 extra …; assay: FACS, inhibition of biotinylated Lag3:Fc binding to MHC-II on A375 cells (competitor MHC-II); antibody 10 µg/ml
Method: This analysis was studied in a FACS competition experiment: A375 cells (ATCC, #CRL-1619) were cultured for 2-3 passages in EM Eagle's medium supplemented with EBSS (PAN, cat.no. #P04-00509), 10% FBS, 2 mM L-Glutamin, 1×NEAA and 1× Sodium Pyruvate. All antibodies, were diluted in FACS buffer to a final concentration of 20 μg/ml in 25 μl (in 96well U-bottom plates). […] A375 cells were washed with PBS and adjusted to 3×10⁶ cells/ml in PBS. 100 μl were seeded per well in a 96well V-bottom plate. Plates were centrifuged and supernatant was removed. […] After this, cells were washed with 200 μl FACS buffer. […] After staining, cells were again washed and then transferred in 150 μl FACS buffer (PBS/2% FBS) to a U-bottom plate and analyzed on a FACS Canto-II using an HTS module.
All antibodies were used at 10 μg/ml final concentration.

biotinylated-Lag3 = target: T2, biotinylated-Lag3; assay: ELISA, inhibition of biotinylated-Lag3 binding to MHC-II on A375 cells (competitor MHC-II)
Method: 25 μl/well of A375 cells (10000 cells/well) were seeded into tissue culture treated 384-well plates (Corning, 3701) and incubated at 37° C. overnight. […] After washing (1×90 μl in PBST) cells were fixed by addition of 30 μl/well glutaraldehyde to a final concentration of 0.05% (Sigma Cat.No: G5882), 10 min at room temperature. After washing (3×90 μl/well with PBST-buffer) 25 μl/well Poly-HRP40-Streptavidin (Fitzgerald, 65R-S104PHRPx) was added in a 1:2000 or 1:8000 dilution and incubated at RT for 1 h. After washing (3×90 μl/well with PBST-buffer) 25 μl/well TMB substrate (Roche, #11835033001) was added and incubated for 2 to 10 min. Measurement took place on a Tecan Safire 2 instrument at 370/492 nm.

[3] = target: T3, LAG3 on cells (recombinant CHO cells …); assay: cell-based or functional assay
[4] = target: T3, LAG3 on cells (recombinant CHO cells …); assay: cell ELISA on recombinant CHO cells expressing Lag3
Method: After washing (1×90 μl in PBST) cells were fixed by addition of 30 μl/well glutaraldehyde to a final concentration of 0.05% (Sigma Cat.No: G5882), 10 min at room temperature. After washing (3×90 μl/well with PBST-buffer) 25 μl/well goat anti-Human Ig κ chain antibody-HRP conjugate (Milipore, AP502P) was added in a 1:1000 dilution and incubated at RT for 1 h. After washing (3×90 μl/well with PBST-buffer) 25 μl/well TMB substrate (Roche, 11835033001) was added and incubated for 6-10 min. Measurement took place on a Tecan Safire 2 instrument at 370/492 nm.

cynomolgus LAG3 on cells [5] = target: T4, cynomolgus LAG3 on cells; assay: flow cytometry on HEK293F cells transfected with cyno-LAG-3, antibody 10 µg/ml
Method: 1.5×10⁵ cells/well were seeded into 96-well plates. […] HEK cells were incubated with indicated antibodies for 45 min on ice, washed twice with 200 μl ice-cold PBS buffer containing 2% FBS, before secondary antibody (APC-labelled goat anti-human IgG-kappa, Invitrogen, cat.no. #MH10515) was added (1:50 diluted in FACS-Puffer/well) and further incubated for 30 min on ice. Cells were again washed twice with 200 μl ice-cold PBS/2% FBS buffer before samples were finally resuspended in 150 μl FACS buffer and binding was measured on FACS CANTO-II HTS Module.

Binder	% positive cyno cells (PBLs) after CD3/CD28 activation (cynomolgus LAG3 on cells [1])	% Inhibition [2]	IC50 (biotinylated-Lag3)	EC50 [nM] in Jurkat LAG3 + SED + Raji (NFAT luciferase), 1st assay [3]	CHO-cell ELISA inflexion point [4]	% pos. (cynomolgus LAG3 on cells [5])	GeoMean (cynomolgus LAG3 on cells [5])	EC50 [nM] in Jurkat LAG3 + SED + Raji (NFAT luciferase), 2nd assay [3]	EC50 [nM] in Jurkat LAG3 + SED + Raji (NFAT luciferase), 3rd assay [3]
aLAG3(0417) (antibody, V domains shown, also called aLAG3 (417)) VH: EVQLVESGGGLVQPGGSLRLACAASGFTFSDYAMSWVRQAPGKGLEWVSGIDNSGYYTYYTDSVKGRFTISRDDVKNTLYLQMNSLRAEDTAVYLCTKTHSGLIVNDAFDIWGQGTMVTVSS VL: not shown	35.3%	59.1%	0.9 nM	1 nM	27.8 ng/mL	75.9%	7120	–	–
aLAG3(0414) (antibody, V domains shown) VH: EVQLLESGGGLVQPGGSLRLSCAASGFIFDDYTMNWVRQAPGKGLEWVAVISWDGGGTYYTDSVKGRFTISRDDFKNTLYLQMNSLRAEDTAVYYCAKGLTDTTLYGSDYWGQGTLVTVSS VL: DIQMTQSPSSLSASVGDRVTITCRASQSISSYLNWYQQKPGKAPKLLIYAASTLQSGVPSRFSGSGSGTDFTLTISSLQPEDFATYYCQQTYSSPLTFGGGTKVEIKG	43%	67.3%	0.9 nM	1.1 nM	48.1 ng/mL	81.6%	9170	1 nM	1.8 nM
aLAG3(0411) (antibody, V domains shown, also called aLAG3 (411)) VH: EVHLLESGGGLVQPGGSLRLSCAASGFIVDDYTMNWVRQAPGKGLEWVSVISWDGGATYYADSVKGRFTISRDDFKNTLYLQMNSLRAEDTAVYYCAKGLTDDTLYGSDYWGQGTLVTVSS VL: DIQMTQSPSSLSASVGDRVTITCRASQSIVSYLNWYQQKPGKAPKLLIYASSSLQSGVPSRFSGSGSGTDFTLTISSLQPEDFATYYCQQTYSTPLTFGGGTKVEIK	46.6%	45.6%	0.8 nM	1.1 nM	41.3 ng/mL	88.6%	11000	1 nM	–
aLAG3(0416) (antibody, V domains shown) VH: EVQLVESGGGLVQPGGSLRLACAASGFTFSDYAMSWVRQAPGKGLEWVSGIDNSGYYTYYTDSVKGRFTISRDDVKNTLYLQMNSLRAEDTAVYLCTKTHSGLIVNDAFDIWGQGTMVTVSS VL: DIQLTQSPSSLSASVGDRVTITCRASQSISSYLNWYQQKPGKAPKLLIYDASSLESGVPSRFSGSGSGTDATLTISSLQPEDFATYYCQQSYSTPLTFGGGTKVEIKG	38.9%	68.6%	0.9 nM	3.1 nM	37.2 ng/mL	67.9%	4220	2.5 nM	3.5 nM
